# Measurements: US20180155451A1 (published 2018)
# T1: FcγRIIa H (human, UniProt P12318 34-217)
# T1 construct: extracellular domain; Soluble extracellular domain with C-terminal His tag, expressed in FreeStyle293 cells; also called FcgRIIa H; 2aH; not shown: C-terminal His tag
# T1 sequence (looked up): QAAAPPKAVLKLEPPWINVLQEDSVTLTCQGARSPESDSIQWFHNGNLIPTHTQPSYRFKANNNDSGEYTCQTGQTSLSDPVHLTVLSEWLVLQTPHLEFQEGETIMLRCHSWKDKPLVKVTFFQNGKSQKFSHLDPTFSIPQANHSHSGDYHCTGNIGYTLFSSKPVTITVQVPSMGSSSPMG
# T2: FcγRIIb (human, UniProt P31994 43-217)
# T2 construct: extracellular domain; Soluble extracellular domain with C-terminal His tag, expressed in FreeStyle293 cells; also called FcgRIIb; 2b; not shown: C-terminal His tag
# T2 sequence (looked up): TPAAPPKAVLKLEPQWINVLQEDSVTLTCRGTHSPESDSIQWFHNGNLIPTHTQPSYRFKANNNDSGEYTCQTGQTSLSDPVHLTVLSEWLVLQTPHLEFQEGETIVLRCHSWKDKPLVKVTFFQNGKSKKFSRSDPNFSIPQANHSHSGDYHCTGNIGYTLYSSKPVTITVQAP
# How the values were obtained:
# FcγRIIa H = target: T1, FcγRIIa H; test: SPR (Biacore), antibody captured, FcγR as analyte; relative to HeCon Ab
# Experimental: (§1) The heterodimerized antibodies He Abs in which one of the H chains was introduced with an alteration were assayed for their binding activities to each activating FcγR and inhibitory FcγR according to the method described in Example 4. […] The activating FcγRs in FIGS. 26, 27, 28, and 29 are FcγRIa, FcγRIIa (R), FcγRIIa (H), and FcγRIIIa, respectively.
# (§2) Analysis of interaction between objective antibody and the FcγR was carried out using Biacore T100 (GE Healthcare). HBS-EP+ (GE Healthcare) was used as the running buffer, and the measurement temperature was set to 25° C. Chips produced by immobilizing the antigen peptide by the amine coupling method to a Series S Sencor Chip CM5 (GE Healthcare), or alternatively, chips produced by allowing preliminarily biotinylated antigen peptides to interact with and immobilize onto a Series S Sensor Chip SA (certified) (GE Healthcare) were used. Antibodies of interest were captured onto an antigen peptide-immobilized chip, and allowed to interact to each FcγR diluted with running buffer. To regenerate and repeatedly use the chip, the antibodies captured on the chip were washed off by reacting 10 mM glycine-HCl, pH 1.5.
# FcγRIIb = target: T2, FcγRIIb; test: as above
# Experimental: as §1, §2
Binder,He/Con_2aH (FcγRIIa H),He/Con_2b (FcγRIIb)
"GpH7-A5/GpH7-B3 variant G237_20W/GpL16-k0 (antibody, human IgG1, kappa, Heterodimerized anti-glypican-3 IgG1; alteration in the GpH7-B3 chain only; also called He Ab) heavy 1: not shown heavy 2: not shown light: DIVMTQSPLSLPVTPGEPASISCQASESLVHSNRNTYLHWYLQKPGQSPQLLIYKVSNRFSGVPDRFSGSGSGTDFTLKISRVEAEDVGVYYCSQNTHVPPTFGQGTKVEIERTVAAPSVFIFPPSDEQLKSGTASVVCLLNNFYPREAKVQWKVDNALQSGNSQESVTEQDSKDSTYSLSSTLTLSKADYEKHKVYACEVTHQGLSSPVTKSFNRGEC",31.6 % of GpH7-A5/GpH7-B3/GpL16-k0 (=100),193 % of GpH7-A5/GpH7-B3/GpL16-k0 (=100)
"GpH7-A5/GpH7-B3 variant L235_20W/GpL16-k0 (antibody, human IgG1, kappa, Heterodimerized anti-glypican-3 IgG1; alteration in the GpH7-B3 chain only; also called He Ab) heavy 1: not shown heavy 2: not shown light: DIVMTQSPLSLPVTPGEPASISCQASESLVHSNRNTYLHWYLQKPGQSPQLLIYKVSNRFSGVPDRFSGSGSGTDFTLKISRVEAEDVGVYYCSQNTHVPPTFGQGTKVEIERTVAAPSVFIFPPSDEQLKSGTASVVCLLNNFYPREAKVQWKVDNALQSGNSQESVTEQDSKDSTYSLSSTLTLSKADYEKHKVYACEVTHQGLSSPVTKSFNRGEC",118 % of GpH7-A5/GpH7-B3/GpL16-k0 (=100),147 % of GpH7-A5/GpH7-B3/GpL16-k0 (=100)
"GpH7-A5/GpH7-B3 variant P238_10E/GpL16-k0 (antibody, human IgG1, kappa, Heterodimerized anti-glypican-3 IgG1; alteration in the GpH7-B3 chain only; also called He Ab) heavy 1: not shown heavy 2: not shown light: DIVMTQSPLSLPVTPGEPASISCQASESLVHSNRNTYLHWYLQKPGQSPQLLIYKVSNRFSGVPDRFSGSGSGTDFTLKISRVEAEDVGVYYCSQNTHVPPTFGQGTKVEIERTVAAPSVFIFPPSDEQLKSGTASVVCLLNNFYPREAKVQWKVDNALQSGNSQESVTEQDSKDSTYSLSSTLTLSKADYEKHKVYACEVTHQGLSSPVTKSFNRGEC",77.1 % of GpH7-A5/GpH7-B3/GpL16-k0 (=100),232 % of GpH7-A5/GpH7-B3/GpL16-k0 (=100)
"GpH7-A5/GpH7-B3 variant P238_09D/GpL16-k0 (antibody, human IgG1, kappa, Heterodimerized anti-glypican-3 IgG1; alteration in the GpH7-B3 chain only; also called He Ab) heavy 1: not shown heavy 2: not shown light: DIVMTQSPLSLPVTPGEPASISCQASESLVHSNRNTYLHWYLQKPGQSPQLLIYKVSNRFSGVPDRFSGSGSGTDFTLKISRVEAEDVGVYYCSQNTHVPPTFGQGTKVEIERTVAAPSVFIFPPSDEQLKSGTASVVCLLNNFYPREAKVQWKVDNALQSGNSQESVTEQDSKDSTYSLSSTLTLSKADYEKHKVYACEVTHQGLSSPVTKSFNRGEC",87.5 % of GpH7-A5/GpH7-B3/GpL16-k0 (=100),221 % of GpH7-A5/GpH7-B3/GpL16-k0 (=100)
"GpH7-A5/GpH7-B3 variant G237_14T/GpL16-k0 (antibody, human IgG1, kappa, Heterodimerized anti-glypican-3 IgG1; alteration in the GpH7-B3 chain only; also called He Ab) heavy 1: not shown heavy 2: not shown light: DIVMTQSPLSLPVTPGEPASISCQASESLVHSNRNTYLHWYLQKPGQSPQLLIYKVSNRFSGVPDRFSGSGSGTDFTLKISRVEAEDVGVYYCSQNTHVPPTFGQGTKVEIERTVAAPSVFIFPPSDEQLKSGTASVVCLLNNFYPREAKVQWKVDNALQSGNSQESVTEQDSKDSTYSLSSTLTLSKADYEKHKVYACEVTHQGLSSPVTKSFNRGEC",31.8 % of GpH7-A5/GpH7-B3/GpL16-k0 (=100),54.8 % of GpH7-A5/GpH7-B3/GpL16-k0 (=100)
"GpH7-A5/GpH7-B3 variant P238_01G/GpL16-k0 (antibody, human IgG1, kappa, Heterodimerized anti-glypican-3 IgG1; alteration in the GpH7-B3 chain only; also called He Ab) heavy 1: not shown heavy 2: not shown light: DIVMTQSPLSLPVTPGEPASISCQASESLVHSNRNTYLHWYLQKPGQSPQLLIYKVSNRFSGVPDRFSGSGSGTDFTLKISRVEAEDVGVYYCSQNTHVPPTFGQGTKVEIERTVAAPSVFIFPPSDEQLKSGTASVVCLLNNFYPREAKVQWKVDNALQSGNSQESVTEQDSKDSTYSLSSTLTLSKADYEKHKVYACEVTHQGLSSPVTKSFNRGEC",37.3 % of GpH7-A5/GpH7-B3/GpL16-k0 (=100),56 % of GpH7-A5/GpH7-B3/GpL16-k0 (=100)
"GpH7-A5/GpH7-B3 variant L234_10E/GpL16-k0 (antibody, human IgG1, kappa, Heterodimerized anti-glypican-3 IgG1; alteration in the GpH7-B3 chain only; also called He Ab) heavy 1: not shown heavy 2: not shown light: DIVMTQSPLSLPVTPGEPASISCQASESLVHSNRNTYLHWYLQKPGQSPQLLIYKVSNRFSGVPDRFSGSGSGTDFTLKISRVEAEDVGVYYCSQNTHVPPTFGQGTKVEIERTVAAPSVFIFPPSDEQLKSGTASVVCLLNNFYPREAKVQWKVDNALQSGNSQESVTEQDSKDSTYSLSSTLTLSKADYEKHKVYACEVTHQGLSSPVTKSFNRGEC",88.3 % of GpH7-A5/GpH7-B3/GpL16-k0 (=100),118 % of GpH7-A5/GpH7-B3/GpL16-k0 (=100)
"GpH7-A5/GpH7-B3 variant L235_09D/GpL16-k0 (antibody, human IgG1, kappa, Heterodimerized anti-glypican-3 IgG1; alteration in the GpH7-B3 chain only; also called He Ab) heavy 1: not shown heavy 2: not shown light: DIVMTQSPLSLPVTPGEPASISCQASESLVHSNRNTYLHWYLQKPGQSPQLLIYKVSNRFSGVPDRFSGSGSGTDFTLKISRVEAEDVGVYYCSQNTHVPPTFGQGTKVEIERTVAAPSVFIFPPSDEQLKSGTASVVCLLNNFYPREAKVQWKVDNALQSGNSQESVTEQDSKDSTYSLSSTLTLSKADYEKHKVYACEVTHQGLSSPVTKSFNRGEC",75.8 % of GpH7-A5/GpH7-B3/GpL16-k0 (=100),106 % of GpH7-A5/GpH7-B3/GpL16-k0 (=100)
